Data on three substances can be found in patent US20220177587A1, “METHODS AND USES OF VARIANT CD80 FUSION PROTEINS AND RELATED CONSTRUCTS” (Alpine Immune Sciences, Inc., priority 2018, published 2022).

Read-outs that look alike come from different tables or passages of the source.

The target in assay [1] is PD-L1 (human) (UniProt Q9NZQ7). Description: flow cytometry, transfected Expi293F cells. In general terms: In flow cytometry, cells or beads pass a laser one at a time.
Target sequence in this assay (Q9NZQ7 19-290): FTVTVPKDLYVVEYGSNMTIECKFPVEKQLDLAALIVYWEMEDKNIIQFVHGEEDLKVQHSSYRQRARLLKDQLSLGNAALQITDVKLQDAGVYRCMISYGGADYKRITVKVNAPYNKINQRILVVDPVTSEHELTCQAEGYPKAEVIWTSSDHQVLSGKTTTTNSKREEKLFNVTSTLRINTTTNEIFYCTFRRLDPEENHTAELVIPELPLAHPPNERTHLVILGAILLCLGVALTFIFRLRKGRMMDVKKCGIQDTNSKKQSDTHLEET
Assay [2] has as its target human CTLA-4 (human) (UniProt P16410). Description: flow cytometry, transfected Expi293F cells.
Target sequence in this assay (P16410 36-223): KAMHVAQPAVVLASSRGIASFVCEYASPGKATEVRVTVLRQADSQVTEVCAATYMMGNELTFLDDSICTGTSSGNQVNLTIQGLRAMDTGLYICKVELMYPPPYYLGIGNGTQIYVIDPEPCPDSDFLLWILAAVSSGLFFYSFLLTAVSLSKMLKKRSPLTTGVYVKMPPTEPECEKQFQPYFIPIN
Assay [3] deals with CD28 (human) (UniProt P10747).
For assay [4], the target named is CD28 (human) (UniProt P10747). The assay can be described thus: flow cytometry, Jurkat cells (CD28).
Assay [5] concerns the target human CTLA-4 (human) (UniProt P16410). Description: flow cytometry, CHO cells stably expressing CTLA4.
In assay [6] the target is PD-L1 (human) (UniProt Q9NZQ7). The assay can be described thus: flow cytometry, CHO cells stably expressing PD-L1.
Assay [7] has as its target CD28 (human) (UniProt P10747). This is another data set of the same source.
In assay [8] the target is PD-L1 (human) (UniProt Q9NZQ7).
Target sequence in this assay (Q9NZQ7 19-290): as the sequence (Q9NZQ7 19-290) above
Assay [9] deals with CD28 (human) (UniProt P10747). The source holds these as a separate data set.
Assay [10] has as its target PD-L1 (human) (UniProt Q9NZQ7). The source holds these as a separate data set.
Target sequence in this assay (Q9NZQ7 19-290): as above
Assay [11] deals with CD28 (human) (UniProt P10747). This is another data set of the same source.
Assay [12] deals with PD-L1 (human) (UniProt Q9NZQ7). The source holds these as a separate data set.
Target sequence in this assay (Q9NZQ7 19-290): as above
Assay [13] has as its target CD28 (human) (UniProt P10747). This is another data set of the same source.
Assay [14] addresses PD-L1 (human) (UniProt Q9NZQ7). The source holds these as a separate data set.
Target sequence in this assay (Q9NZQ7 19-290): as above
Assay [15] deals with CD28 (human) (UniProt P10747). The assay can be described thus: flow cytometry, HEK293 cells transfected with full-length human CD28, PE anti-human Fc.
In assay [16] the target is PD-L1 (human) (UniProt Q9NZQ7). The assay can be described thus: flow cytometry, HEK293 cells transfected with full-length human PD-L1, PE anti-human Fc.
Target sequence in this assay (Q9NZQ7 19-290): as above
The target in assay [17] is human CTLA-4 (human) (UniProt P16410). Description: flow cytometry, HEK293 cells transfected with full-length human CTLA-4, PE anti-human Fc.
Target sequence in this assay (P16410 36-223): as the sequence (P16410 36-223) above

Take “CD80 R29D/Y31L/Q33H/K36G/M38I/T41A/M43R/M47T/L85R/K89N/A91T/F92P/K93V/R94L/I118V/T120S/I127T/T130A/K169E/H188D ECD-Fc (Fc fusion)”: the MFI in [1] was determined as 110000; in [2], 2200.
Regarding Human IgG1 Isotype Control (antibody), in assay [3], the Relative Luminescence (RLU), Jurkat/IL2 reporter assay, at 100000 pM is 965 RLU. Further, the results for the MFI at 66.7 nM in [4], in assay [5] and in assay [6] were 73.2, 69.4 and 96.4, respectively.
WT CD80 IgV-Fc (inert) (Fc fusion): the Jurkat/IL2 reporter RLU at 50 nM, CHO/OKT3/PD-L1 aAPC in assay [7] and in assay [8] was 483 RLU throughout. In assay [7], this substance yielded a Jurkat/IL2 reporter RLU at 50 nM, CHO/OKT3 aAPC without PD-L1 of 479 RLU. The Jurkat/IL2 reporter RLU at 50 nM, K562/OKT3/PD-L1 aAPC turned out to be 566 RLU in assay [9], 566 RLU in assay [10], 206 RLU in assay [11] and 206 RLU in assay [12]. Moreover, the IL-2 release, primary T cells + K562/OKT3/PD-L1, 100 nM in assay [13] and in assay [14] was 52 throughout. In addition, the MFI at 66.6 nM stood at 1620 MFI in assay [15] and 20700 MFI in assay [17]. Further, the MFI at 22.2 nM in [16] was determined as 1770 MFI.
